Reference: the RNAGym collection of RNA variant scans (doi:10.1073/pnas.2313332121)

B1: TPR t1 (parent)
chain: GACCAAUCUGCCCUCAGAGCUCGAGAACAUCUUCGGAUGCAGAGGAGGCAGGCUUCGGUGGCGCGAUAGCGCCAACGUCCUCAACCUCCAAUGCAUCCCACCACAUGAUGAUGCCUGAAGAGCCUUGGUUUUUUG

Variants of: B1
Assay: polymerase ribozyme fitness, log enrichment relative to wild type (log ratio); higher = more active; in vitro selection for triplet polymerase activity
Method in brief: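 Both subunits of a heterodimeric triplet polymerase ribozyme were given their own mutant library, built by PCR and transcribed. Each library was annealed with a biotinylated primer, the partner subunit and triplets, incubated frozen at −7 °C, and its extended constructs gel-excised, captured on streptavidin beads and amplified by RT-PCR, all in one round done in triplicate. Fitness is the logarithm of genotype enrichment relative to wild-type enrichment, with replicates averaged by inverse-variance weighting. That logarithm is base 2, and Illumina-sequenced genotypes needed ≥10 input reads and ≥1 read per output.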

Variant	polymerase ribozyme fitness (log ratio)
GAGCAAUCUGCCCUAAGAGCUGGAGAACAUCUUCGGAUGCAGAGGAGGCAGGCUUCGGUGGCGCGAUAGCGCCAACGUCCUCAACCUCCAAUGCAUCCCACCACAUGAUGAUGCUUGAAGAGCCUUGGUUUUUUG	-4.4
GAUCAAUCUGCCCUCCAAGCUCGAGAACAUCUUCGGAUGCAGAGGAGGCAGGCCUCGGUGGCGCGAUAGCGCCAACGCCCUCAACCUCCCAUGCAUCCCACCACAUGAUGAUGCCUGAAGAGCCUUGGUUUUUUG	-2.6
GAGCAAUCUGCCCUCAGAGCUCGAGAACAUCUUCGGAUGCAGAGGACGCAGACUUCGGUGGCGCGAUAGCGCCAACGUCCUCAACCACCAAUGCAUCCCACCACAUGAUGAUGCCUGAAGAGCGUUGGUUUUUUG	-4.41
GAGCAAUCUGCGCUCAGAGCUCGAGAACAUCUUCGGAUGCAGAGGAGGCAGGCUUCGGUGGUGCGAUAGCGCCAACGUCCUCAACCUCCAAUGCAUCCCACCACAUGAUGAUGCCUGAAGAGCCUUGGUUUUUUG	-2.34
GAGCAAUCUGCCCUCAGAGCUCGAGAACAUCUUCGGAUGCAGAGGAGGCAGGCUCCGGUGGCGCGAUAGCGUCAACGUCCUCAACCUCCAAUACAUCCCACCACAUGAUGAUGCCUGAAGAGCCUUGGUUUUUUG	-4.63
GAUCAUUCUGCCCUCAGAGGUCGAGAACAUCUUCGGUUGCAGAGGAGGCAGGCUUCGGUGGCGCGAUAGCGUCAACGUCCUUAACCUCCAAUGCAUCCCACCACAUGAUGAUACCUGACGAGCCUUGGCUUUAUG	-5.44
GAUCAUUCUGCCCUCAGAGCUCGAGAACAUCUUCGGAUGCAGAGGAGGCAGUCUUCGGUGGCGCGAUAGCGCCAACGUCCUCAACCUCCAAUGCAUCCCACCACAUGAUGUUGCCUGUAGAGCCUUGGUUUUUUG	-4.02
GAGCAAUCUGCCCUCAGAGCUCGAGAACAUCUUCGGAUGCAGAGGAGGGAGGCUUCGGUGGCGCGAUAGCGCCAACGUCCUCAACCUCCAAUGCAUCCCACCACAUGAUGAUGCCUGAAGAGCCUUGGUUUUUUG	-3.17
GAGCAAUCUGCCUUCAGAGCUCGAGAACAUCUUCGGAUGCAGAGGAGGCAGGCUUAGGUGGCGCGAUAGCGCCAACGUCCUCAACCUCCAAUGCAUCCCACCACAUGAUGAUGCCUGAAGAGCCUUGGUUUUUUG	-2.3
GAGCAAUCUGGCCUCAGAUCUCGAGAACAUCUUCGGAUGCAGAGGAGGCAGGCUUCGGUGGCACGAUAGCGCCAACGUCCUCAACCUCCAAUGCAUCCCACCACAUGAUGAUGCCUGAAAAGCCUUGGUUUUUUG	-5.7
GAUCAAUCUGCCCUCUGAGCUCGAGAACAUCUUCGGAUGCAGAGGAGGCAGGCUUCGGUGGCGCGAUAGCACCAACGUCCUCAACCUCCAAUGCAUCCCACCACAUGAUGAUGCCUGAAGAGCCUUGGUUUUUUG	-2.38
GAUCAAUCUGCCCUCAGUGCUCGAGAACAUCUUCGGAUGCAGAGGAGGCAGGCUUCGGUGGCGCGAUAGCGCCAACGUCCUCAACCUCUAAUGCAUCCCACCACAUGAUGAUGCCUGAACAUCCUUGGUUUUUUG	-3.19
GAUCAAUCUGCCCUCAGAGCUCGAGAACUUCUUCGGAUGCAGAGGAGGCAGGCUUCGGUGGCGCGAUAGCGCCAACGUCCUCAACCUCCAAUGCAUCCCACCACAUGAAGAUGCCUGAAGAGCCUUGGUUUUUUG	0.179
GAGCAAUCUGCGCUCAGAGCUCGAGAACAUCUUCGGAUGCAGAGGAGGCAGGAUUCGGUGUCGCGAUAGCGCCAACGUCCUCAACCUCCAAUGCAUCCCACCACAUGAUGAUGGCUGAAGAGCCUUGGUUUUUUG	-5.41
GAGCAAUCUGCCCUCAGAGCUCGAGAACAUCUUCGGAUGCAGAGGAGGCAGGCUUCGGUUGCGCGAUAGCGCCAACGUCCUCAACCACCAAUGCAUCCCACCACAUGAUGAUGCCUGAAGAGCCUUGGUUUUUUG	-2.32
GAGCAAUCUGCCCUCAGAGCUAGAGAACAUCUUCGGAUGCAGAGGAGGCAGGCUUCGGUGGCGCGAUAACGCCAACGUCCUCAACCUCCAAUGCAUCCCACCACAUGAUGAUGCCUGAAGAGCGUUGCUUUUUUG	-4.83
GAGCAAUCUGCCCUCAGAGCUCGAGAACAUCUUCGGAUGCAGAGGAGGCAGGCUUCGGUGGCGCGAUAGCGCCAACGUCCUCAACCUCCAAUGCAUCCCACAACAUGAUGAUGCCUGAAGAGCCUUGGUUUUUUG	-4.71
GAGCAAUCUGCCCUCAGAGCUCGAGAACAUCUUCGUAUGCAGAGGAGGCAGGCUUCGGUGGCGCGAUAGCGCCAACGUUCUCAACCUCGAAUGCAUCCCACCACAUGAUGAUGCCUGAAGAGGCUUGGUUUUGUG	-3.18
GAGCAAUCUGCCCUCAGAGCUCGAGAACAUCUUCGGAUGCAGAGGAGGCAGGCUUCGGUGGCGCGAUAGCGGCAACGUCCUCAACCUCCAAUGCAUCCCACCACAUGAUGAUGCCUGAAGAGCCUUGGUUUUUUG	-2.06
GAGCAAUCUGCCCUCAGAGCUCGAGAACAUCUUCGGAUGCAGAUUAGGCAGGCUUCGGUGGCGCGAUAGCGCCAACGUCCUCAACCUCAAAUGUAUCCCACCACAUGAUGUUGCCUGAAGAGUCUUGGCUUUUUA	-4.23
GAGCAAUCCGCCAUCAGAGCUCGAGAACAUCUUCGGAUGCAGAGGAGGCAGGCUUCGGUGGCGCGAUAGGGCCAACGUCCUCAACCUCAAAUGCACCCCAACACAUGAUGAUGCCUCAAGAGCCUUGGUUUUUUG	-5.88
